{"source": "patent US20240279345A1", "about": "“ALPHA 5 BETA 1 INTEGRIN BINDING AGENTS AND USES THEREOF” (PASITHEA THERAPEUTICS CORP., priority 2021, published 2024)", "key": {"[1]": {"biological_target": "T1, recombinant human α5β1 integrin (rh-α5β1) (Homo sapiens, UniProt P05556+P08648)", "T1 construct": "purchased R&D Systems 3230-A5", "T1 sequence (P08648 42-894 limits assumed)": "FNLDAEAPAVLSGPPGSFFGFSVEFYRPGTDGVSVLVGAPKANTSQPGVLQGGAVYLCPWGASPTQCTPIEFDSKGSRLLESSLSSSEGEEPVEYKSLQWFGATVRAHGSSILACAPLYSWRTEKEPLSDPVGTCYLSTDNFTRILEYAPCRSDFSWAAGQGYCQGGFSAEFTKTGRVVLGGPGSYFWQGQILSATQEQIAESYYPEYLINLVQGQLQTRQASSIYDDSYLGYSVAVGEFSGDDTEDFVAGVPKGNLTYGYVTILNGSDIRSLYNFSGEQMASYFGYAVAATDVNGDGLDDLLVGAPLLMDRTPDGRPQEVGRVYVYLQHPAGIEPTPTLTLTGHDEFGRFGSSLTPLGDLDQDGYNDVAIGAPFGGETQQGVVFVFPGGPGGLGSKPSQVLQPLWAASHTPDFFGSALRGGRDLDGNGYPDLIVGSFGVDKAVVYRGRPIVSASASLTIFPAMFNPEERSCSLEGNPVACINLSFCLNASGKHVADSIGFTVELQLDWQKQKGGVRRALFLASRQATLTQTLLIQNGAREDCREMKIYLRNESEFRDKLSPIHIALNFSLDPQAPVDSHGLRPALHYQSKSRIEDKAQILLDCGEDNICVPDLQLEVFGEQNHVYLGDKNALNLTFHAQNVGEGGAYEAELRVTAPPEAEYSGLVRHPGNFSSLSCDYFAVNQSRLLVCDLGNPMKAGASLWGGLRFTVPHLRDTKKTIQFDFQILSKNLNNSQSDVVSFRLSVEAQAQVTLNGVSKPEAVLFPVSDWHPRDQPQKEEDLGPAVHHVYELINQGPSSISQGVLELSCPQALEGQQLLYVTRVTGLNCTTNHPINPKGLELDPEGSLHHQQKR", "T1 sequence (P08648 895-995 limits assumed)": "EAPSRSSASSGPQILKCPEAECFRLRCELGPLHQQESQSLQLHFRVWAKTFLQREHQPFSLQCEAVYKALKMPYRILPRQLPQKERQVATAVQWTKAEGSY", "T1 sequence (P05556 21-728 limits assumed)": "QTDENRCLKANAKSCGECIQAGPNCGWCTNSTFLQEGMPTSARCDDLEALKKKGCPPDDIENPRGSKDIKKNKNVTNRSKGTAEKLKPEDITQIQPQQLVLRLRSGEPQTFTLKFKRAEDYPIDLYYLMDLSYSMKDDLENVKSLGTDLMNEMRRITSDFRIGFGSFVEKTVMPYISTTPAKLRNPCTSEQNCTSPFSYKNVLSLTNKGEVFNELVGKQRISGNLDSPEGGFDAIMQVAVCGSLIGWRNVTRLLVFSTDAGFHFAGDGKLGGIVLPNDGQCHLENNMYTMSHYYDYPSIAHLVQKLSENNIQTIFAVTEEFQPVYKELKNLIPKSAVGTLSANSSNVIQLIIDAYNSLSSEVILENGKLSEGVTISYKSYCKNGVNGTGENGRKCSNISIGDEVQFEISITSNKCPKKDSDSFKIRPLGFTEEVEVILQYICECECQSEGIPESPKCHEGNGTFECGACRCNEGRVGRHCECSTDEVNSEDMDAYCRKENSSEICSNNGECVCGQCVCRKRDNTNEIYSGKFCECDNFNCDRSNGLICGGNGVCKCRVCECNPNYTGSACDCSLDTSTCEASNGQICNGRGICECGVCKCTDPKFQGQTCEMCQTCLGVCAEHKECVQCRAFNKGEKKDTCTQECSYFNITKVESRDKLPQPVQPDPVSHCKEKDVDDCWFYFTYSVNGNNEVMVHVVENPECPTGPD", "test": "Plate-based ELISA reactivity to rh-α5β1", "assay_type": "binding", "conditions": "selected for further characterization among α5 specific hybridomas (28 selected)", "protocol": "(§1) The 249 positive hybridoma supernatants selected as described in Example 1 were screened for reactivity to rh-α5β1 in a plate-based ELISA. Immulon4 HBX ELISA 96-well plates (Thermo Fisher Scientific, Waltham, MA, cat. no. 3855) were coated with rh-α5β1 (R&D Systems, Minneapolis, MN 55413, cat. no. 3230-A5), at 1 μg/mL in PBS supplemented with 0.5 mM MgCl2, MnCl2 and CaCl2 and incubated overnight at 4° C. Plates were washed 3 times with Wash Buffer (1× Tris Buffered Saline containing 0.05% Tween20), blocked with 2% BSA in 1×TBS (made from 10× Thermo Scientific Blocker BSA (10×) in TBS; Thermo Fisher Scientific, Waltham, MA, cat. no. 37520) for 2 hours at room temperature (RT) then incubated with hybridoma supernatants diluted 1:10 with Standard Diluent (2% BSA, 1×TBS, 0.05% Tween20). Following a 1 hour incubation at RT, wells were washed 3 times, incubated with biotinylated goat anti-mouse secondary antibody at 1:8000 dilution (Invitrogen, Carlsbad, CA, cat. no. 62-6540) for 1 hour, washed 3 times, then incubated for 30 minutes with poly-HRP Streptavidin (Thermo Fisher Scientific, Waltham, MA, cat. no. N200), washed 4 times, incubated with TMB (Thermo Fisher Scientific, Waltham, MA, cat. no. N301) for 5-10 minutes, followed by addition of ELISA Stop Solution (Invitrogen, Carlsbad, CA, cat. no. SS04). Absorbance 450 nm was measured."}, "[2]": {"biological_target": "rh-α5β1 (Homo sapiens, UniProt P05556+P08648)", "sequence (P08648 42-894 limits assumed)": "as the sequence (P08648 42-894 limits assumed) above", "sequence (P08648 895-995 limits assumed)": "as the sequence (P08648 895-995 limits assumed) above", "sequence (P05556 21-728 limits assumed)": "as the sequence (P05556 21-728 limits assumed) above", "test": "Competition binding studies by Biolayer Interferometry (epitope groups)", "conditions": "for Response (nm) / % Response: secondary mAb pre-mixed with 20 nM rh-α5β1; for % Response: relative to antigen alone", "protocol": "Epitope analysis via competition binding studies was performed using Biolayer Interferometry (BLI) on the 6 antibodies selected as described in Example 5. The anti-α5β1 FN blocking antibodies A2-7A05, C-14D12 and A-15B08 were immobilized on sensors and incubated with each of the other antibodies that had been preincubated with rh-α5β1, to determine whether this antibody-antigen association prevents or allows binding to the antibody on the sensor. The magnitude of observed binding (response) was compared to binding of antigen alone under the same conditions. If the overall response was greater than 120% of antigen binding alone, then the antibodies can pair with each other. If response was less than 80% of response of antigen binding alone, then the antibodies block each other. The protocol was as follows: preincubate the panel of antibodies with antigen (1 hr). Equilibrate the sensor (30 seconds (s))-->Load lead Ab on the sensor (700s)--->Quench (480s)--->Read baseline (480s)-->measure preincubated Ab+Ag association with loaded sensor (600s)."}, "[3]": {"biological_target": "T2, rh-α4β1 (Homo sapiens, UniProt P05556+P13612)", "T2 construct": "purchased R&D Systems 3230-A5 & 5668-A4", "T2 sequence (P13612 34-977 limits assumed)": "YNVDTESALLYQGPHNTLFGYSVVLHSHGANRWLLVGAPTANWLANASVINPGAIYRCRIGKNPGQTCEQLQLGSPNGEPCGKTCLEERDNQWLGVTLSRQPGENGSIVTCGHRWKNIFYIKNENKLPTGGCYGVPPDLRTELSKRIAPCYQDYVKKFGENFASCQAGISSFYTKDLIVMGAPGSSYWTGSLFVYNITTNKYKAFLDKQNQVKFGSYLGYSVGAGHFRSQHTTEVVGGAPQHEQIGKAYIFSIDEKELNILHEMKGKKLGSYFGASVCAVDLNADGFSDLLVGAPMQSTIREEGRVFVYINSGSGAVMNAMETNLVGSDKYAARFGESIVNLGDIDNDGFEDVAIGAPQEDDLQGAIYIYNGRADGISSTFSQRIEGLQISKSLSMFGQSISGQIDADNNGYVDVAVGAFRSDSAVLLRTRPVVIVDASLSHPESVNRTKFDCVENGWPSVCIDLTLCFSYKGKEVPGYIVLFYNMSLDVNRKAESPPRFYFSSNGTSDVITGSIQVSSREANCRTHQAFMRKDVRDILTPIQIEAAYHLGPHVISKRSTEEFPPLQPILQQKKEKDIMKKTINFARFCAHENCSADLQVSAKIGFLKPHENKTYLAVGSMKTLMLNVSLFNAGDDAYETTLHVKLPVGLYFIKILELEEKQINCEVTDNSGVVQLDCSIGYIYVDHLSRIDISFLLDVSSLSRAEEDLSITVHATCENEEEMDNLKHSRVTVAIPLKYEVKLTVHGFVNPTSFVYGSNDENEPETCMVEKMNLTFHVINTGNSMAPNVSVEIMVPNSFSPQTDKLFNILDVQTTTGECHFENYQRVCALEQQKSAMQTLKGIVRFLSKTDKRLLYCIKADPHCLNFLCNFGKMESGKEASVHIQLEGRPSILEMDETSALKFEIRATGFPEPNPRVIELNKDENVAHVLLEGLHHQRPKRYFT", "T2 sequence (P05556 21-728 limits assumed)": "as the sequence (P05556 21-728 limits assumed) above", "test": "Plate-based ELISA reactivity to rh-α4β1 (α5 subunit specificity)", "assay_type": "binding", "conditions": "hybridoma supernatant diluted 1:10; plate coated with rh-α4β1", "protocol": "as §1\nIn parallel the 249 hybridomas were screened for specificity to the human α5 subunit by testing for reactivity to rh-α4β1 (R&D Systems, Minneapolis, MN 55413; cat. no. 3230-A5 & 5668-A4). Any hybridoma that reacted to both rh-α4β1 and rh-α5β1 is likely to be β1 subunit specific and not considered α5 specific. Using the protocol described above, 29 hybridoma supernatants reacted strongly (>1.0 Absorbance 450 nm) with rh-α4β1 and were not considered to be α5 specific."}, "[4]": {"biological_target": "T3, recombinant mouse α5β1 (rm-α5β1) (Mus musculus, UniProt P09055+P11688)", "T3 construct": "purchased R&D Systems 7728-A5", "T3 sequence (P11688 45-898 limits assumed)": "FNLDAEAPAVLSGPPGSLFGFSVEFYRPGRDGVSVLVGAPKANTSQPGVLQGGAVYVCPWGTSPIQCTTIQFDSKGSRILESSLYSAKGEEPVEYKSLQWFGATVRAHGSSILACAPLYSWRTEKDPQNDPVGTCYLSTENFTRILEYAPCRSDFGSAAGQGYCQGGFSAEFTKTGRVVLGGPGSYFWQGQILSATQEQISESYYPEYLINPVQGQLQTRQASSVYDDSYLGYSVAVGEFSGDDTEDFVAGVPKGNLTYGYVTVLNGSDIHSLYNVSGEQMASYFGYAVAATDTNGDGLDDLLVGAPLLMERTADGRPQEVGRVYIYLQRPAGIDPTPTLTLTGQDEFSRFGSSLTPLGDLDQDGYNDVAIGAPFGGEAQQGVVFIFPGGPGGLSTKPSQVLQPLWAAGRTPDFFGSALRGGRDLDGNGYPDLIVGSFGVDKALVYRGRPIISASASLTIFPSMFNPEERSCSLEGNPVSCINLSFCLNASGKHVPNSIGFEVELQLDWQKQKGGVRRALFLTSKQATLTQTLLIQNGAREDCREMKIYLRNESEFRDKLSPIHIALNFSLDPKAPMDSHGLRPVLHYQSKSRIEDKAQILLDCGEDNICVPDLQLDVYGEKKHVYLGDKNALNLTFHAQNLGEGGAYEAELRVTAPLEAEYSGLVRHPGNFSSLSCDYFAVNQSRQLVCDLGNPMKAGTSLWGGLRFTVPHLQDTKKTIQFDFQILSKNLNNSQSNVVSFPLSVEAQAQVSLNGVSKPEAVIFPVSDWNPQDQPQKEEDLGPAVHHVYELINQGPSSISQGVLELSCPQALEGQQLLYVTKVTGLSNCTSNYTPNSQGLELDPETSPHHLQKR", "T3 sequence (P11688 899-999 limits assumed)": "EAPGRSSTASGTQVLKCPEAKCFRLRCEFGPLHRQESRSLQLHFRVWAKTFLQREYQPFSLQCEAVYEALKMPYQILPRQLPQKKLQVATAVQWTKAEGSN", "T3 sequence (P09055 21-728 limits assumed)": "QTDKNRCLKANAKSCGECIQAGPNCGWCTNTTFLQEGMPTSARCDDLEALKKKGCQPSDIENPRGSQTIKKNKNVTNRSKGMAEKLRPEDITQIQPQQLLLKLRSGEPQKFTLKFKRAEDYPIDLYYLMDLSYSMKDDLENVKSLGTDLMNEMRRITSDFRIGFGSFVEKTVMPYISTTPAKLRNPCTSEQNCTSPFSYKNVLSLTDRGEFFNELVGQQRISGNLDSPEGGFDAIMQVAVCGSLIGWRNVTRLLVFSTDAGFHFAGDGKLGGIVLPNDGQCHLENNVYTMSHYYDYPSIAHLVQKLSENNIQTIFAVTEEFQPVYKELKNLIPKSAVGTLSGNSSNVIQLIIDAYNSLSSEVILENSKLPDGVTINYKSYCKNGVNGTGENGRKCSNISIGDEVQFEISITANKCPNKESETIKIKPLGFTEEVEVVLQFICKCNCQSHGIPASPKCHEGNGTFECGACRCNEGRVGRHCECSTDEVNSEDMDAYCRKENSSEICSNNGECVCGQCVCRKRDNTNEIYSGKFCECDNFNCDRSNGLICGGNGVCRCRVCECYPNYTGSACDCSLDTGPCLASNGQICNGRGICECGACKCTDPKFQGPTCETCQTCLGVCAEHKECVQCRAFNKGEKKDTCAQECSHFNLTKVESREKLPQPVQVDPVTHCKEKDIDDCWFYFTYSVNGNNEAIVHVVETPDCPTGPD", "test": "Plate-based ELISA cross-reactivity to rm-α5β1", "assay_type": "binding", "conditions": "hybridoma supernatant diluted 1:10; plate coated with rm-α5β1", "protocol": "as §1\nIn addition, hybridomas were tested for cross-reactivity to recombinant mouse α5β1 (rm-α5β1; R&D Systems, Minneapolis, MN 55413; cat. no. 7728-A5) using the same protocol as above except that the plates were coated with rm-α5β1."}, "[5]": {"biological_target": "T4, binding of α5β1 integrin to fibronectin (FN) (Homo sapiens, UniProt P05556+P08648)", "T4 construct": "purchased Acro Biosystems IT1-H52W5", "T4 sequence (P08648 42-894 limits assumed)": "as the sequence (P08648 42-894 limits assumed) above", "T4 sequence (P08648 895-995 limits assumed)": "as the sequence (P08648 895-995 limits assumed) above", "T4 sequence (P05556 21-728 limits assumed)": "as the sequence (P05556 21-728 limits assumed) above", "test": "Quantitative FN inhibition (FN-blocking) assay in ELISA format", "assay_type": "biochemical", "conditions": "by ELISA", "description": "To determine whether the 9 unique hybridoma clones selected as described in Example 4 were able to inhibit the binding of α5β1 integrin to fibronectin (FN), the antibodies were first purified from hybridoma supernatants by Protein A chromatography, protein concentrations measured by BCA assay (Pierce™ BCA Protein Assay Kit; Thermo Fisher Scientific, Waltham, MA, cat. no. 23225) and then tested in a quantitative FN inhibition assay in an ELISA format.\nImmulon4 HBX ELISA 96-well plates were coated with FN by incubation overnight at 4° C. with 2.5 μg/mL human FN (R&D Systems, Minneapolis, MN 55413, cat. no. 1918-FN) in 1×PBS (0.01M phosphate buffer and 0.154M NaCl, pH 7.4). Plates were then washed 3 times with Wash Buffer (1× Tris Buffered Saline containing 0.05% Tween20), blocked with 2% BSA in 1×TBS for 2 hours at room temperature (RT). Antibodies were diluted in Standard Diluent (2% BSA, 1×TBS, 0.05% Tween20) containing 0.1 μg/mL rh-α5β1-6×His tagged protein (Acro Biosystems, Newark, DE, cat. no. IT1-H52W5), to generate an 11 point 1:3 antibody dilution series ranging from 10,000 ng/mL to 0.17 ng/mL. Isotype control antibody (Control Ab; Ms IgG2a EMD Millipore Corp, Billerica, MA, cat. no. PP102) was used to normalize data across different assay runs. For the assays, 100 uL of the antibody dilution series/His-tagged-α5β1 mixture was added to the wells after the blocking solution was removed and wells were washed 3 times. Following 1 hour at RT, the wells were washed 3 times, incubated with biotinylated Anti-6×His-Tag Ab (Invitrogen, Carlsbad, CA, cat. no. MAI-21315-BTIN) at 1:1000 in Standard Diluent for 1 hour, washed 3 times, incubated for 30 minutes with poly-HRP Streptavidin (Thermo Fisher Scientific, Waltham, MA, cat. no. N200), washed 4 times, incubated with TMB substrate (Thermo Fisher Scientific, Waltham, MA, cat. no. N301) for 2-5 minutes, followed by addition of ELISA Stop Solution (Invitrogen, Carlsbad, CA, cat. no. SS04). Absorbance 450 nm was measured. Data points were normalized to the isotype Control Ab values at each concentration and reported as % Absorbance 450 nm normalized to Control Ab. Non-linear regression analysis was used to fit curves (4-parameter) to the data using GraphPad Prism version 9.0.2 (GraphPad Software, LLC, San Diego, CA).\nFreeze-thaw stability was tested on a small aliquot of each chimera antibody by overnight storage at −80° C. followed by thaw on ice, repeated three times. […] IC50s were calculated by non-linear regression analysis curve-fitting (4-parameter) of the ELISA data (FIG. 5) using GraphPad Prism version 9.0.2 (GraphPad Software, LLC, San Diego, CA). […]"}}, "data": [{"molecule": "A2-3B06: anti-α5β1 antibody, VH SEQ ID NO:42, VL SEQ ID NO:43 (antibody, V domains shown, A2-3B06 VH Sequence; A2-3B06 VL Sequence) VH: QVQLKESGPGLVAPSQSLSITCTISGFSLTTYGVHWVRQPPGKGLEWLVVIWSDGSTTYNSALKSRLNITKDNSKSQVFLKMNSLQTDDTAMYYCVRHGGLLRRDAMDYWGQGTSVTVSS VL: QIVLTQSPAIMSASLGERVTMTCTASSSVSSNSFHWYQQKPGSSPKLWLYSTSNLASGVPARFSGSGSGTSYSLTISSMEAEDAATYYCHQYLRSPPTFGGGTKLEIK", "values": [{"measurement": "Selected Human α5 Specific", "setting": "[1]", "value": "Yes"}, {"measurement": "binding of rh-α5β1 complexed with antibody to A2-7A05 on the sensor", "setting": "[2]; antibody preincubated with rh-α5β1, A2-7A05 immobilized on sensor", "value": "able to bind"}, {"measurement": "binding of rh-α5β1 complexed with antibody to A-15B08 on the sensor", "setting": "[2]; antibody preincubated with rh-α5β1, A-15B08 immobilized on sensor", "value": "not able to bind"}, {"measurement": "binding of rh-α5β1 complexed with antibody to C-14D12 on the sensor", "setting": "[2]; antibody preincubated with rh-α5β1, C-14D12 immobilized on sensor", "value": "not able to bind"}, {"measurement": "Response (nm)", "setting": "[2]; immobilized mAb A2-7A05", "value": 0.07, "unit": "nm"}, {"measurement": "% Response", "setting": "[2]; immobilized mAb A2-7A05", "value": 198.65, "unit": "%"}, {"measurement": "Response (nm)", "setting": "[2]; immobilized mAb A-15B08", "value": 0.10, "unit": "nm"}, {"measurement": "% Response", "setting": "[2]; immobilized mAb A-15B08", "value": 50.05, "unit": "%"}, {"measurement": "Response (nm)", "setting": "[2]; immobilized mAb C-14D12", "value": 0.12, "unit": "nm"}, {"measurement": "% Response", "setting": "[2]; immobilized mAb C-14D12", "value": 53.28, "unit": "%"}, {"measurement": "epitope group", "setting": "[2]; two epitope groups among 6 antibodies", "value": "second group"}, {"measurement": "Absorbance 450 nm Human α4β1", "setting": "[3]", "value": 0.0558}, {"measurement": "Absorbance 450 nm Mouse α5β1", "setting": "[4]", "value": 0.049}]}, {"molecule": "A2-8H11: hybridoma clone positive on K562 cells (antibody, V domains shown) VH: QVQLKESGPGLVAPSQSLSITCTISGFSLTTYGVHWVRQPPGKGLEWLVVIWSDGSTTYNSALKSRLNITKDNSKSQVFLKMNSLQTDDTAMYYCVRHGGLLRRDAMDYWGQGTSVTVSS VL: QIVLTQSPAIMSASLGERVTMTCTASSSVSSNSFHWYQQKPGSSPKLWLYSTSNLASGVPARFSGSGSGTSYSLTISSMEAEDAATYYCHQYLRSPPTFGGGTKLEIK", "values": [{"measurement": "Selected Human α5 Specific", "setting": "[1]", "value": "Yes"}, {"measurement": "Absorbance 450 nm Human α4β1", "setting": "[3]", "value": 0.0595}, {"measurement": "Absorbance 450 nm Mouse α5β1", "setting": "[4]", "value": 0.0515}]}, {"molecule": "A2-6C10: hybridoma clone positive on K562 cells (antibody, V domains shown) VH: QVQLKESGPGLVAPSQSLSITCTISGFSLTTYGVHWVRQPPGKGLEWLVVIWSDGSTTYNSALKSRLNITKDNSKSQVFLKMNSLQTDDTAMYYCVRHGGLLRRDAMDYWGQGTSVTVSS VL: QIVLTQSPAIMSASLGERVTMTCTASSSVSSNSFHWYQQKPGSSPKLWLYSTSNLASGVPARFSGSGSGTSYSLTISSMEAEDAATYYCHQYLRSPPTFGGGTKLEIK", "values": [{"measurement": "Selected Human α5 Specific", "setting": "[1]", "value": "Yes"}, {"measurement": "Absorbance 450 nm Human α4β1", "setting": "[3]", "value": 0.0609}, {"measurement": "Absorbance 450 nm Mouse α5β1", "setting": "[4]", "value": 0.0551}]}, {"molecule": "A-15B08-T62A: human IgG4 chimera variant of A-15B08, Thr62 to Ala in CDRH2; VH SEQ ID NO:135, VL SEQ ID NO:26 (antibody, V domains shown, human IgG4 constant regions; A-15B08-T62A VH Sequence; A-15B08 VL Sequence) VH: QVQLKESGPGLVAPSQSLSITCTISGFSLTSYGVHWVRQPPGKGLEWLVVIWSDGSTTYNSALKSRLSISKDNSKSQVFFKMNSLQTDDTAMYYCARHYDYDGDWFAYWGQGTLVTVSA VL: QIVLTQSPAIMSASLGERVTMTCTASSRVSSNSLHWYQQKPGSSPKLWIYSTSNLASGVPARFSGSGSGTSYSLTISSMEAEDAATYYCHQYLRSPPTFGGGTKLEIK", "values": [{"measurement": "class of FN binding blocker", "setting": "[5]", "value": "strong blockers of FN binding"}]}, {"molecule": "A2-9A11: hybridoma clone positive on K562 cells (antibody, V domains shown) VH: QVQLKESGPGLVAPSQSLSITCTISGFSLTTYGVHWVRQPPGKGLEWLVVIWSDGSTTYNSALKSRLNITKDNSKSQVFLKMNSLQTDDTAMYYCVRHGGLLRRDAMDYWGQGTSVTVSS VL: QIVLTQSPAIMSASLGERVTMTCTASSSVSSNSFHWYQQKPGSSPKLWLYSTSNLASGVPARFSGSGSGTSYSLTISSMEAEDAATYYCHQYLRSPPTFGGGTKLEIK", "values": [{"measurement": "Selected Human α5 Specific", "setting": "[1]", "value": "Yes"}, {"measurement": "Absorbance 450 nm Human α4β1", "setting": "[3]", "value": 0.0608}, {"measurement": "Absorbance 450 nm Mouse α5β1", "setting": "[4]", "value": 0.0619}]}]}
